Values quoted from earlier work, collected in article PMC7094366.

Target: SARS-CoV 3C-like proteinase (Severe acute respiratory syndrome coronavirus) (UniProt P0C6X7)

Substance: SARS-CoV 3C-like proteinase (from UniProt P0C6X7)
- Kd: 100 µM
